Test results as given in patent US12312641B2, “Sensitivity marker for antibody-drug conjugate” (priority 2018, dated 2025).

System: patient-derived xenograft (PDX) model
Test: Anti-tumor effect (TGI) in patient-derived xenograft models, 10 to 15 days after administration
Format: in vivo, nu/nu mice
Details: for TGI (%): 10 mg/kg tail vein; for Proportion of PDX models showing TGI of 75% or more: TGI at 10 to 15 days
Description: Mice: Female nu/nu mice (Envigo) aged 5-8 weeks were acclimatized under SPF conditions for 3 days or more prior to experimental use. Mice were fed with sterile solid feed (Teklad2919, Envigo) and given reverse osmosis membrane-treated water (containing 2 ppm chlorine).
Measurements and Calculation formula: long and short diameters of tumors were measured twice a week with an electronic digital caliper (CD-6PMX, Mitutoyo Corp.) and tumor volume (mm^3) was calculated using the following calculation formula: Tumor volume (mm^3)=0.52×Long diameter (mm)×[Short diameter (mm)]^2
Tumor fragments from each cancer patient were subcutaneously implanted into mice and passaged. The obtained tumors were used to subcutaneously implant tumor fragments, which were cut to approximately 5×5×5 mm^3, into the left abdomen of female nu/nu mice, thereby each patient-derived xenograft (PDX) model was created. Mice were randomly grouped when the mean transplanted tumor volume reached 150 to 300 mm^3 (Day 0). On the same day as grouping, the antibody-drug conjugate (1) was administered into the tail vein at a dose of 10 mg/kg. A formulation buffer was similarly administered at a volume of 10 mL/kg as a negative control.
Data on the amount of gene expression in each PDX model used in Example 4 were obtained by the next-generation RNA sequencing method using RNA extracted from formalin-fixed paraffin-embedded specimens of each tumor. After the obtained data were normalized to a FPKM value, 1 was added to FPKM, and the sum was transformed to a logarithmic (log2) to obtain a log2[FPKM+1] value (Table 6). The log2[FPKM+1] value was used to analyze the relationship between the anti-tumor activity of antibody-drug conjugate (1) in each PDX model (Table 5) and the amount of expression of the hTROP2 gene and the SLFN11 gene.

B1: antibody-drug conjugate (1): humanized anti-hTROP2 antibody (SEQ ID NO: 1 residues 20-470, SEQ ID NO: 2 residues 21-234) conjugated to the exatecan-derivative drug-linker via a thioether bond (conjugate, chains of the INN, looked up)
VH: QVQLVQSGAEVKKPGASVKVSCKASGYTFTTAGMQWVRQAPGQGLEWMGWINTHSGVPKYAEDFKGRVTISADTSTSTAYLQLSSLKSEDTAVYYCARSGFGSSYWYFDVWGQGTLVTVSS
VL: DIQMTQSPSSLSASVGDRVTITCKASQDVSTAVAWYQQKPGKAPKLLIYSASYRYTGVPSRFSGSGSGTDFTLTISSLQPEDFAVYYCQQHYITPLTFGQGTKLEIK
modifications: exatecan-derivative drug-linker
- TGI (%) (PDX model #1, Breast, Day 14): 95.2%
- TGI (%) (PDX model #2, Lung, Day 14): 68.3%
- TGI (%) (PDX model #3, Cholangiocarcinoma, Day 14): 22.2%
- TGI (%) (PDX model #4, Pancreatic, Day 14): 21.8%
- TGI (%) (PDX model #5, Colorectal, Day 14): 41.7%
- TGI (%) (PDX model #6, Breast, Day 14): 92.4%
- TGI (%) (PDX model #7, Breast, Day 15): 87.6%
- TGI (%) (PDX model #8, Head & neck, Day 14): 57.9%
- TGI (%) (PDX model #9, Head & neck, Day 14): 94.0%
- TGI (%) (PDX model #10, Lung, Day 14): 97.3%
- TGI (%) (PDX model #11, Lung, Day 14): 87.4%
- TGI (%) (PDX model #12, Breast, Day 15): 90.0%
- TGI (%) (PDX model #13, Lung, Day 14): 62.3%
- TGI (%) (PDX model #14, Breast, Day 14): 82.7%
- TGI (%) (PDX model #15, Cholangiocarcinoma, Day 14): 46.4%
- TGI (%) (PDX model #16, Colorectal, Day 14): 26.0%
- TGI (%) (PDX model #17, Breast, Day 14): 56.5%
- TGI (%) (PDX model #18, Lung, Day 14): 14.6%
- TGI (%) (PDX model #19, Lung, Day 14): 28.1%
- TGI (%) (PDX model #20, Lung, Day 14): 82.0%
- TGI (%) (PDX model #21, Lung, Day 14): 76.6%
- TGI (%) (PDX model #22, Lung, Day 14): 87.9%
- TGI (%) (PDX model #23, Lung, Day 14): 4.7%
- TGI (%) (PDX model #24, Lung, Day 14): 19.1%
- TGI (%) (PDX model #25, Pancreatic, Day 14): 37.9%
- TGI (%) (PDX model #26, Pancreatic, Day 13): 62.3%
- TGI (%) (PDX model #27, Lung, Day 13): 48.5%
- TGI (%) (PDX model #28, Breast, Day 14): 92.6%
- TGI (%) (PDX model #29, Breast, Day 14): 97.4%
- TGI (%) (PDX model #30, Lung, Day 10): 84.7%
- TGI (%) (PDX model #31, Colorectal, Day 14): 58.4%
- TGI (%) (PDX model #32, Lung, Day 13): 64.9%
- TGI (%) (PDX model #33, Lung, Day 14): 25.0%
- TGI (%) (PDX model #34, Lung, Day 13): 89.7%
- TGI (%) (PDX model #35, Lung, Day 14): −0.4%
- Proportion of PDX models showing TGI of 75% or more (log2[FPKM+1]: hTROP2 >4.0, SLFN11 >1, 21 models): 57%
- Proportion of PDX models showing TGI of 75% or more (log2[FPKM+1]: hTROP2 >4.0, SLFN11 >2, 15 models): 60%
- Proportion of PDX models showing TGI of 75% or more (log2[FPKM+1]: hTROP2 >4.0, SLFN11 >3, 9 models): 67%
- Proportion of PDX models showing TGI of 75% or more (log2[FPKM+1]: hTROP2 >4.0, SLFN11 All models, 32 models): 44%
- Proportion of PDX models showing TGI of 75% or more (log2[FPKM+1]: hTROP2 >5.0, SLFN11 >1, 18 models): 56%
- Proportion of PDX models showing TGI of 75% or more (log2[FPKM+1]: hTROP2 >5.0, SLFN11 >2, 13 models): 62%
- Proportion of PDX models showing TGI of 75% or more (log2[FPKM+1]: hTROP2 >5.0, SLFN11 >3, 7 models): 71%
- Proportion of PDX models showing TGI of 75% or more (log2[FPKM+1]: hTROP2 >5.0, SLFN11 All models, 29 models): 41%
- Proportion of PDX models showing TGI of 75% or more (log2[FPKM+1]: hTROP2 >6.0, SLFN11 >1, 17 models): 59%
- Proportion of PDX models showing TGI of 75% or more (log2[FPKM+1]: hTROP2 >6.0, SLFN11 >2, 12 models): 67%
- Proportion of PDX models showing TGI of 75% or more (log2[FPKM+1]: hTROP2 >6.0, SLFN11 >3, 6 models): 83%
- Proportion of PDX models showing TGI of 75% or more (log2[FPKM+1]: hTROP2 >6.0, SLFN11 All models, 25 models): 48%
- Proportion of PDX models showing TGI of 75% or more (log2[FPKM+1]: hTROP2 >7.0, SLFN11 >1, 11 models): 64%
- Proportion of PDX models showing TGI of 75% or more (log2[FPKM+1]: hTROP2 >7.0, SLFN11 >2, 7 models): 86%
- Proportion of PDX models showing TGI of 75% or more (log2[FPKM+1]: hTROP2 >7.0, SLFN11 >3, 4 models): 100%
- Proportion of PDX models showing TGI of 75% or more (log2[FPKM+1]: hTROP2 >7.0, SLFN11 All models, 16 models): 50%
- Proportion of PDX models showing TGI of 75% or more (log2[FPKM+1]: hTROP2 All models, SLFN11 >1, 24 models): 54%
- Proportion of PDX models showing TGI of 75% or more (log2[FPKM+1]: hTROP2 All models, SLFN11 >2, 18 models): 56%
- Proportion of PDX models showing TGI of 75% or more (log2[FPKM+1]: hTROP2 All models, SLFN11 >3, 12 models): 58%
- Proportion of PDX models showing TGI of 75% or more (log2[FPKM+1]: hTROP2 All models, SLFN11 All models, 35 models): 43%
- Proportion of animal models showing TGI of 75% or more (log2[FPKM+1]: hTROP2 exceeds 7.0 and SLFN11 exceeds 3.0): 100%
